Assay: yeast display, Sf9 membrane polyspecificity reagent, FACS + sequencing; frameworks hold sequencing errors
Summary of the method: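 Nanobodies from a synthetic yeast display library (Saccharomyces cerevisiae BJ5465), induced 36–48 hours with galactose, were stained 1 hour at 4 °C with 10% biotinylated, detergent-solubilized Sf9 membrane reagent, enriched on streptavidin microbeads, then FACS-sorted. Anti-HA (expression) and streptavidin (reagent binding) fluorescence set low and high (top ~1%) gates. Polyreactivity labels come from the gate of origin. Genes were colony-PCR amplified, MiSeq 2 × 250 sequenced and filtered by CDR length.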
With “QVQLVESEGGLVQAGGSLRLSCAASGRTFHYYAMGWYRQAPGKERELVAAISSTGGSTYYADSVKGRFTISRDNAKNTVYLQMNSLKPEDPAVYYCAARRSRGYSPTYDYWGQGTQVTVSS” the “polyreactivity (PSR sort gate)” value was “high polyreactivity”.
With “QVQLVESGAGIVQAGGSLRLSCAASGYTFQHYAMGWYRQAPGKERELVAAITRRGSGTYYADSVKGRFTISRDNAKNTVYLQMNSLKPEDTAVYYCGADWYYGDEYEYWGQGTQVNVSS” the “polyreactivity (PSR sort gate)” value was “high polyreactivity”.
For “QVQLVESGAGLFQAGGSLRLSCAPSGSIFAPNDMGWYRQAPGKERELVAAITSSGGRTYYADSVKGRFTISRDNAKNTVYLQMNSLKPEDTAVYYCAADHGYQYGYWGQGTHVTVSS”, the “polyreactivity (PSR sort gate)” value was “low polyreactivity”.
With “QVQLVESGAGLVKAGGSLRLSCAASGRSFRGNVMGWYRQAPGKEREFVAAISSSGGSTYYADSVKGRFTISRDNAKNTVYLQMNSLKPEDTAVYYCAAGGWPYSGGWFFQPNYDYWGQGTQVTVSS” the “polyreactivity (PSR sort gate)” value was “low polyreactivity”.
In the case of “QVQLVESGAGLVKAGGSLRLSSAASGSTFGEYDMGWYRQAPGKERELVASITFSAGSTDYADSVKGRFTISRDNAKNTVYLQMNSLNPEDTAVYYCAADGWWPWEYDYWGQGTQGTVSS”, the “polyreactivity (PSR sort gate)” value is reported as “low polyreactivity”.
For “QVQLVESGAGLVQAAGSLRISSAHSGFSFTYNAMGWYRQAPGKVTEFVASISRSGGRTYYADSVKGRFTISRDNANNTVYLQMNSLKPEDTAVYYCAARNAYVYGMDSWGKGTQVTVSS”, the “polyreactivity (PSR sort gate)” value was “low polyreactivity”.
For “QVQLVESGAGLVQAGASLRLICAASGRTFPDYAMGWYRQAPGTERELVAAIYSGGGTNYADSVKGRFTISRDNAKNTVYLQMNSLKQEDTAVYYCAATGVPGWVGFDYWGQGTQVTVSS”, the “polyreactivity (PSR sort gate)” value was “low polyreactivity”.
For “QVQLVESGAGLVQAGGGLRLSCAASGFIFNLYAMGWYREAPGKERELVAAISSGGNTHYADSVKGRFTISRDNAKNTVYLQMNSLKPVDTAVYYCNADVNHVNKAWHVSFHQGYYWGQGTQVTVSS”, the “polyreactivity (PSR sort gate)” value was “low polyreactivity”.
In the case of “QVQLVESGAGLVQAGGILRLSCAASGRIFQYNAMGWYRQAPGKEREWVAAIRRGGGSTYYADSVKGRFTISRDNAKNTVYLQMNSLKPEDTAVYYCAARRKRVSFYPEYDYWGQGTQVTVSS”, the “polyreactivity (PSR sort gate)” value is reported as “low polyreactivity”.
In the case of “QVQLVESGAGLVQAGGRLRLSCAASGFIFTRYVMGWYRQAPGKERELVAAIRRGGSTYYADSVKGRFTISRDNAKNTVYLPMNSLKPEDTAVYYCAALYAYSLTARGMEYWGQGTQVTVSS”, the “polyreactivity (PSR sort gate)” value is reported as “high polyreactivity”.
In the case of “QVQLVESGAGLVQAGGRLRLSCAASGIIFRPYAMGWYRQAPGKERELVAAITGSGVSTYYADSVKGRFTISRDNAKITVYLQMNSLKPEDTAVYYCAKRYNRCDHRYDYWGQGTQVTVSS”, the “polyreactivity (PSR sort gate)” value is reported as “low polyreactivity”.
In the case of “QVQLVESGAGLVQAGGRLRLSCAASGRIFIRNAMGWSRQAPGKERELVAAIDSVGSTNYADSVKGRFTISRDNAKNTVYLQLNSLKPEETAVYYCAARGWKYASPYWGYYYWGQGSQVTVSS”, the “polyreactivity (PSR sort gate)” value is reported as “low polyreactivity”.
In the case of “QVQLVESGAGLVQAGGSLGLSCAPSGRIFGRYVRGWYRQAPGKERELVATITSRGGTTYYADSVKGRFTISRDNAKNTVFLQMISLKPEDTAVYYCAVRGLIRFSKYGYWGQGTQVTVSS”, the “polyreactivity (PSR sort gate)” value is reported as “high polyreactivity”.
In the case of “QVQLVESGAGLVQAGGSLLLSSAPSASTFVSYAMGWYRQAPGKERELVAAISSGGGSTYYADSVKGRFTISRDNAKNTVYLQMNILKPEDTAVYYCAARGYAYRAQYGYWGQGTQVTVSS”, the “polyreactivity (PSR sort gate)” value is reported as “high polyreactivity”.
For “QVQLVESGAGLVQAGGSLRISCAASGRTFFPNAMGWYRQAPGKERELFAAISSGGGGTYYADSVKGRFTISRDNAKNTVYLQMNSLKPEDTAVYYCAARNSKVEEDGNYWGQGTQVTVSS”, the “polyreactivity (PSR sort gate)” value was “low polyreactivity”.
For “QVQLVESGAGLVQAGGSLRLCCAASGSIFAPYAMGWYRQAPGKERELVAAISRSGGSTYYADSVKGRFTISRDNAKNTVYLQMNSLKPEDTAVYYCADRNGLRQYRLDYWGQGTQVTVSS”, the “polyreactivity (PSR sort gate)” value was “high polyreactivity”.
In the case of “QVQLVESGAGLVQAGGSLRLSCAASGFIFEINAMGWYRQAPGKERELVAVITNSGGSTYYADSVKGRFTISRDNAKYTVYLQMNSLKPEDTAVYYCAADAVHYTNDWYDYWGQGTQVTVSS”, the “polyreactivity (PSR sort gate)” value is reported as “low polyreactivity”.
For “QVQLVESGAGLVQAGGSLRLSCAASGFTFAFYAMGWSRQAPGKERELVAAITGSGGSTYYADSVKGRFTISRDNAKNTVYLQMNSLIPEVTAVYYCNNYTYYSRMDYWGPGTQVTVSS”, the “polyreactivity (PSR sort gate)” value was “high polyreactivity”.
In the case of “QVQLVESGAGLVQAGGSLRLSCAASGFTFDNYVMGWYRQAPGKERELVAAISKSGTSTYYADSVKGRFTISRDNAKNTVYLQMNSLKPEDTAVYYCAAALPGYGDYYYWGQGTLVTVSS”, the “polyreactivity (PSR sort gate)” value is reported as “high polyreactivity”.
In the case of “QVQLVESGAGLVQAGGSLRLSCAASGFTFDYYAMGWYRQAPGKESELVATINGASSTNYADSVKGRFTISRDNAKNTVYLQMNSLKPEDTAVYDCNARYYGPDFVLAYDYWGQGTQVTVSS”, the “polyreactivity (PSR sort gate)” value is reported as “low polyreactivity”.
In the case of “QVQLVESGAGLVQAGGSLRLSCAASGFTFNYYAMGWYRQAPGKERELVATITTSGGITYYADSVKGRFTISRDNAKNTVYLQMNSLKPEDTAVYYCAAGSYSRYLYSLYFDFDYWGQGTQVTVSS”, the “polyreactivity (PSR sort gate)” value is reported as “low polyreactivity”.
With “QVQLVESGAGLVQAGGSLRLSCAASGIIIPYYVMGRYRQAPGKEMELVAAISGSGGSTYYADSVKGRFTISRDNAKYTVYLQLNSLKPEAPAVYYCARYYYQFGGYEYWGQGTQVTVSS” the “polyreactivity (PSR sort gate)” value was “high polyreactivity”.
With “QVQLVESGAGLVQAGGSLRLSCAASGITFASYAMGWYRQAPGKERELVAAITWGGSRTYYADSVKGRFTISRDNAKNSVYLQMNSLKPEDTAVYYCNAHTRYGPDYSYYYWGQGSQVTVSS” the “polyreactivity (PSR sort gate)” value was “high polyreactivity”.
With “QVQLVESGAGLVQAGGSLRLSCAASGITFYDNDMGWYRQPPGKERELVAGITGTTVGTYYADSVKGRFTISRDIAKNTVYLQMNSLKPEDTAVYYALLTVVVPYQYYSLSLNTLDSWGQGTQVTVSS” the “polyreactivity (PSR sort gate)” value was “low polyreactivity”.
For “QVQLVESGAGLVQAGGSLRLSCAASGITFYDYAMAWYRQAPGKERELVAAISRSGITYYADSVKGRFTISRDNAKNTVYLQMNSLKPEVTAVYYCAAGRSFDQSMYYWGQGTQVTVSS”, the “polyreactivity (PSR sort gate)” value was “high polyreactivity”.
In the case of “QVQLVESGAGLVQAGGSLRLSCAASGNTFGTYAMGGSRQAPGKERELVASISKRAGSTYYADSVKGRFTISRDNAKNTVYLQMNSLKPEDTAVYYCAASSWDTFDYWGQGTQVTVSS”, the “polyreactivity (PSR sort gate)” value is reported as “high polyreactivity”.
For “QVQLVESGAGLVQAGGSLRLSCAASGRIFDNYVMGWYRQAPGKERELVAAISSGGGTYYADSVKGRFTISRDNAKNTVYLQMNSLKPEDTAVYYCAKRRVYDRSFGRYDYWGQGTKVTVSS”, the “polyreactivity (PSR sort gate)” value was “low polyreactivity”.
For “QVQLVESGAGLVQAGGSLRLSCAASGRIFERYAMGWYRQAPGKERELVAAISVSGSGTYYADSVKGRFTISRDNAKNTVYLQMNSLKPEDTAVYYCAADASLLGLFQGYDYWGQGTQVTVSS”, the “polyreactivity (PSR sort gate)” value was “low polyreactivity”.
In the case of “QVQLVESGAGLVQAGGSLRLSCAASGRIFRCYAMGWYRQAPGKERELVAAIRSGGSTNYADSVKGRFTISRDNAKNTVYLQMLSLKPEDTAVYYCATQNIYRIHQSLWGWYGYWGQGTQVTVSS”, the “polyreactivity (PSR sort gate)” value is reported as “low polyreactivity”.
In the case of “QVQLVESGAGLVQAGGSLRLSCAASGRIFTKYAMGLYRQAPGKERELVAAISGSGGNTYYADSLKGRFTISRDNAKNTVYLQMNSLKPEDTAVYYCNRAKNAYLMDFWGQVTQVTVSS”, the “polyreactivity (PSR sort gate)” value is reported as “high polyreactivity”.
For “QVQLVESGAGLVQAGGSLRLSCAASGRIFYPYAMGRSRQAPGKERELVAAISGRGGRTYYADSVKGRFTISRDNAKNTVYLQMKSLKPEYTAVYYCNRVVSGYPGSDYWGNGTQVTVSS”, the “polyreactivity (PSR sort gate)” value was “high polyreactivity”.
With “QVQLVESGAGLVQAGGSLRLSCAASGRIFYWNAMGWYTQAPGKEREFVAAISWSGGSTYADSVKGRFTISRDNAKNTVYLQMNSLKPEDTAVYYCATRVSRSFRAYDYWGQGTQVTVSS” the “polyreactivity (PSR sort gate)” value was “high polyreactivity”.
In the case of “QVQLVESGAGLVQAGGSLRLSCAASGRTFAFYAMGWYRQAPGKERELVAAITLGASRTYYADSVKGRFTISRDNAKNTVYLQMNSRKPEDTAVYYCNAVGRRNVDSSLNDYWGQGTLVTVSS”, the “polyreactivity (PSR sort gate)” value is reported as “low polyreactivity”.
In the case of “QVQLVESGAGLVQAGGSLRLSCAASGRTFWSYAMGWYRQAPGKERELVAAIRTSDGITYYADSVKGRFTISRDNAKNTVYLQMNSLKPEDTAVYYCAAENWYNYDYWGQGTQVSVSS”, the “polyreactivity (PSR sort gate)” value is reported as “low polyreactivity”.
For “QVQLVESGAGLVQAGGSLRLSCAASGRTLKTYVMGWYRQAPGKERELVAAITCGGRTYYADSVKGRFTISRDNAKNTVYLQMNSLKPEDTAVYYCNAQLYWYRYWYLFDNTSFDYWGQGTQVTVSS”, the “polyreactivity (PSR sort gate)” value was “low polyreactivity”.
For “QVQLVESGAGLVQAGGSLRLSCAASGSIFDDYAMGWSRQAPGKESELVAAISSSGTSTYYADSVKGRFTISRDNAKNTVYLQMNSLKPEDTAVYYCNRGLAARVGSGDYWGQGTQVTVSS”, the “polyreactivity (PSR sort gate)” value was “low polyreactivity”.
For “QVQLVESGAGLVQAGGSLRLSCAASGSIFQPDAMGWYRQAPGKERELVAAITNCGSTYYADSVKGRFTISRDNAKNTVYLQMNSLNPEVTAVYYCAADVQSSHEYDYWGQGTQVTVSS”, the “polyreactivity (PSR sort gate)” value was “low polyreactivity”.
In the case of “QVQLVESGAGLVQAGGSLRLSCAASGSISRYYAMGWYRQAPGKERELVAAISVSGGSTYYADSVKGRFTISRDNAKNTVYLQMNSLKPEHTAVYYCKKVRLSDYDWGQGTQVTVSS”, the “polyreactivity (PSR sort gate)” value is reported as “high polyreactivity”.
In the case of “QVQLVESGAGLVQAGGSLRLSCAASGSTFCRYVAMGWYRQAPGKERELVAAISVSDGDTYYADSVKGRFTISRDNAKNTVYLQMNSLKPEDTAVYYCAAESFYGYDYWGQGTQVTVSS”, the “polyreactivity (PSR sort gate)” value is reported as “high polyreactivity”.
With “QVQLVESGAGLVQAGGSLRLSCAASGSTFGFNTMGWYRQAPGKERELVAAISWSTGRTNYADSVKGRFTISRDNAKNTVYLQMNRLKPEDTAVYYCAARALDKYRFGGRYDYWGQGTQVTVSS” the “polyreactivity (PSR sort gate)” value was “low polyreactivity”.
In the case of “QVQLVESGAGLVQAGGSLRLSCAASGSTFGINAMGWYRQAPGKERELVASIRGDGGSTYYADSVKGRFTISRDNEKNTVSLQMNSLKPEDTAVYYCNKDDFSSPGENRYHSDPYDSWGQGTQVTVSS”, the “polyreactivity (PSR sort gate)” value is reported as “low polyreactivity”.
